Results from article PMC5559466.

Molecular target: T1, His6-Sll0649 (OmpR family response regulator) (Synechocystis sp. PCC 6803) (UniProt P72948)
T1 sequence: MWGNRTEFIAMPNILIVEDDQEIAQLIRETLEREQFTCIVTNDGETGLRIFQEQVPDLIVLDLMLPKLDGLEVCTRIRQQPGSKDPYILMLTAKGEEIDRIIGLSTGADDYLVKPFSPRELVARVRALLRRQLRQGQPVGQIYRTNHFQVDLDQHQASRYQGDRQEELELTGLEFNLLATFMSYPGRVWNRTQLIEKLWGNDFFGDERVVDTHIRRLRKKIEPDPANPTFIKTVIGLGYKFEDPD
Assay: EMSA
Conditions: EMSA: 20 mM Tris-base pH 7.9, 1 mM DTT, 10 mM MgCl2, 0.2 mg/mL BSA, 5% glycerol, 1 mg/mL poly(dI-dC), about 10 ng probe, 20 min at 25 C, 6% native PAGE

With “AGCCAGTGGCGATAAGTCAGATCCTAGACCCCGACTTTTTTCCAAAATCAGAATAAATACAAAAAAAAGCCCTCTAAAACAATGACCTTGTCCTGAAAAACTGACACAAAAATTTCATACCGTCGTCATAGCCCTGTCATACTCGTCCCCTACATTAATAAATGTCAGCCCAAGCCGTTTCTTATCGCCACTGGCT (double strand) [Pslr1204 EMSA probe]” the binding was “no binding”.
